Values of other authors in US20070184095A1, “OSMIUM COMPOUNDS FOR THE TREATMENT OF PSORIASIS” (priority 2006, published 2007).

Adalimumab
increase in incidence of serious infections (human, in vivo): two-fold | most notable complication (human, in vivo): reactivation of tuberculosis

efalizumab: humanized monoclonal antibody against the CD11a subunit of LFA-1
patients who developed hemolytic anaemia (human, in vivo): four | patients with immune-mediated thrombocytopenia (platelet counts at or below 52,000 cells/microliter) (human, in vivo): 0.3% | subjects developing antiefalizumab antibodies (human, in vivo): approximately 5% | overall incidence of hospitalization for infections (placebo 1.2): 1.6 per 100 patient-years

infliximab: chimeric (mouse-human) IgG1 monoclonal antibody, which binds to and inactivates TNF-α
reported adverse events (small percentage of treated patients): pneumonia, tuberculosis, lymphoma, drug-induced lupus and hepatotoxicity
